# Experimental data as given in a protein production outcome set (Wang et al. 2014).
# Assay: label from the status in PepcDB records
row,Sequence,protein production
1,MDHHAQHHPRSHACVLPNGLRLHLAHDPAASRAAAWLRVAAGSHDEPSAHPGLAHFLEHLSFLGGAAFPGDERLMPWLQVRGGQVNASTLGKTTDYFFEVTAEHLGAGLARLIDMLARPLLDIDAQRREREVLEAEYLARSADEQTLIDAALALGLPAGHPLRRFAAGRRDSLALESDAFQRALREFHAAHYHAGNCQLWLQGPQTLDELERLAQRACADLPGRAPGASPPPPPLLPFACEALALRLPGPPRLVLGFALDALRGADEQTLLAFAELLGDRSPGGLLAALGEQGLGESVALRVVHRDARQALLALTFELFDGSAAAALEAAFFDWLGALRDDAASLLAARRPLLAEPTAPLERLRQRVLGLPAEIRPACLDALRADRCLRLHLDSELDGAEARWSAGFRLSVAPVAAAPPLAAQRHAWRFELPLPPSAAAEGALFLRWRFPGVPARSRFLALRQALRPLCGQARLGGVEMGLEALGEDWSLSLLGPRDRLEAAVRPALARLLAAPPDWRANGERLSSAERRRSATGLPIRQLLDALPGLLGEPLAEVDDWRRTRWDALVMQAAMPDPRWMPGQAAGERLEPLPPRPGRHRRELAVDGESALLLFCPLPTQEVPMEAAWRLLARLHEPAFQRRLRDELQLGYALFCGFREVGARRGLLFAAQSPRACPARLLEHMETFLQRSAEALAQLPARRLAGLRKALADDLRRAPGSFAERARRAWAEHLGGGAGRSRLLAEAALGLSGDDLLAAQARLLEARGGWWVLSSRR,failed
2,MDHHHHHHHHMPRTTGMNVAVVGGGISGLAVAHHLRSRGTDAVLLESSARLGGAVGTHALAGYLVEQGPNSFLDREPATRALAAALNLEGRIRAADPAAKRRYVYTRGRLRSVPASPPAFLASDILPLGARLRVAGELFSRRAPEGVDESLAAFGRRHLGHRATQVLLDAVQTGIYAGDVEQLSVAATFPMLVKMEREHRSLILGAIRAQKAQRQAALPAGTAPKLSGALSTFDGGLQVLIDALAASLGDAAHVGARVEGLAREDGGWRLIIEEHGRRAELSVAQVVLAAPAHATAKLLRPLDDALAALVAGIAYAPIAVVHLGFDAGTLPAPDGFGFLVPAEEQRRMLGAIHASTTFPFRAEGGRVLYSCMVGGARQPGLVEQDEDALAALAREELKALAGVTARPSFTRVFRWPLGIPQYNLGHLERVAAIDAALQRLPGLHLIGNAYKGVGLNDCIRNAAQLADALVAGNTSHAP,not failed
3,MDHIRTHNTHHARKSADHLCVITDGGVSAIDRVSQRNIRVRLGAEHHDQLFCQAHGLKRLLPGKSIDLHKDKKWRTLICSITKNPETSMTPDAARKNSPEMKPRKKKKRQFRQLFARSLQRLARTRSGSAEFSGPLRSVAILAQEKLGDCVLLTPLVRNLRQAFPDLEIHLITFSRASANFFMNDPQVTAVHLVKKQPRRYFREVLSRKFDLLFNTKDHPSTWFLLQSALIRARFKVGHNNPFHEGLYDRLLDTEFHAHMAVKNCALLPLLGVTADTEACRPSLPAMPVSNEIWQLLSRLAEDIRPIGVNISAGEPNRLWTEAKWRALLERFPGERFVVLSGPDDLDAKRRLEEQCPNAVASPPTRNLYEASCIVAKLRLLVTPDTSMVHVASATGTPVAGLYREAPQDISRFGPYAIPYEIVISPTGEVSGIKPESVADAVRRLMARAIGREA,failed
4,MDHKKVAERVIKDVGRDNIIAGAHCATRLRLVLKDDSKVDQKALDNDPDVKGTFKTNGQYQVIIGPGDVNDVYDEFIKITGLKELSTDDLKKVAAEGQKKNPIMDFIKLLSDIFVPIIPALVAGGLLMALNNFLTSPGLFGPKSVVQMAPNVAGISSMIQVMSAAPFIFMPILVGMSAAKRFGANQFLGATIGMIMTTPGLGGATKFWDIFGLHVAQTNYQYQVIPVLVAVWVLSIFEKYFHKHLPSAVDFTFTPLLSIMITGFLTFTIIGPVFKGVSDAITNAIVWLYDTTGAFGMGVFGLSYSAIVTTGLHQSFPAVETQLLAAFAKNPASSGDFIFVTACMANVAQGAATFAVYFLTKNKKMKGLASSSGVSALLGITEPALFGVNLKYKFPFFCALIGSGVAAAFAGLMHVTAAALGSAGFLGFLSIYPRTIPMWVVSVAISFAVSFILTYVYGKSHLKEEVAEQDVPVNDATDYAEETQKAEKIGKEQLALKDEIIYSPVDGTPESLTKVNDQVFSAKLMGDGAAVIPSDGTIYAPVTGTVTIAYETKHAYGIKSDDGAEVLIHIGLDTVNLKGEHFESFVKQGQRVEKGDKLGSVDLDAVKKAGYDTTVMVVITNTANYANVQRITDAGDKHGDKLIAVTAHE,failed
5,MDIDASSCPELYARRAYGAEMTSQHQNTPSSEQIRRAPKVLLHDHLDGGLRPGTIVELARDAGYSGLPETDPDKLGIWFREAADSGSLERYLETFAHTCAVMQTRAALVRVAAECAEDLAADGVVYAEVRYAPEQHLEAGLSLEEVVEAVNEGFRAGERRAKEDGNRIRVGALLTAMRHAARALEIAELANRYRDAGVVGFDIAGAEAGFPPTRHLDAFEYLKRENNHFTIHAGEAFGLPSIWQALQWCGADRLGHGVRIIDDIQVREDGSVKLGRLASYVRDKRIPLELCPSSNLQTGAASSYADHPIGLLRRLHFRATVNTDNRLMSGTSMSREFEHLVDAFGYTLDDMAWFSVNAMKSAFIPFDERLAMINDVIKPGYAELKSEWLFKQTASTSSSAASEE,not failed
6,MDIEDLRTFVAVADAGGVSAAARRLGISKSIVSRRLFRIEAELGVQLLARTTRGAALTEAGITFRDHAARASAEIDTARETILPAGELHGRLRIAMPLTFGPTHFAPVLAEMARQHPQLHIHTSYSDRFVDLIAEGFDCAIRGAYLQDSNLIAKRVGPIHGKLVASPAYIKAHGSPEMVEQLVNHQALMQGTEAWQFMDGDRIVTVQPQGKFKADSATALAAAAAAGLGIAWLPDCITHAYLASGALVPIMTRYPVPPGAVYVVRPPSQHPARKVRVLTEMLTEYFKRTPELWGVDG,failed
7,MDIHIKPINTFAHAEMDALYTMIFHFYEEYDPTHVITKESINDTIIHLTNHPESGSIQFVYDAENALVGYVILIKYWSNEYQGYLLFIDELYIVPDKRSLGYGRTCITLIEKTFHDIQALALEVSPKNTRAQAFYLQLGFLPNKNKTFIKIKY,failed
8,MDIKEAGPFPVKKEQFRMTVNGQAWEVAAVPTTHLSDLLRKEFQLTGTKVSCGIGRCGACSILIDGKLANACMTMAYQADGHSITTIEGLQKEELDMCQTAFLEEGGFQCGYCTPGMIIALKALFRETPQPSDKDIEEGLAGNLCRCTGYGGIMRSACRIRRELNGGRRESGF,failed
9,MDIQGLLERLKPFIIIVLLFSVVFYIRAEASNIGGVPADAKKFYEDADGLPYFSEMDSYYNYRLTMNYLTKGIMGDTLVDGKPYDLHSYYPPGRPVDYPPLIVYVTSAAYRVLNFFGDFSLKEVAFWMGAFIGSLCVIPAYLFVRRITNDYGGFAAALIVGLVPTYVAHTYAGFFDTDMFNFVLPLFVFWFFTEGMLASSMRGKVGYALAAAVSILVFSAAWVGYIFYLAVLIVFVAAYLVISRYILGEKPAGEFEGKLDWLIHQRELFPLLILIIAGGVLVGVFGGFSSLAGAVGGLIGATQIQATAQTTAYPNVYVSVSELQVPEFITTGAGNIFLPGQNTIVGGVGGLLVFIIGVLGVGALVWKYRQPEVVVEESENRPRAGKKSKFMRKKRAAVASEEMRHRYLLYAVLMAVWLIMSGYAVTKGSRFIPTFAMPLGLSAGIFTGFLVEYLRVRFTTTSSLALIVFVAAVAMVMPFGVSVAVKLLAGVLAAGFIYSVKKPEIRAPFMMVLVVLAAVAPSVSGAHSITTSVAPGTDDGMWNSMQWVKKNTSRDTVVMSWWDFGHLFAVAADRPVTFDGGSQNTPRAYWIGKALTTSNETLSRGILTMLSTSGDLAYETLDNYTDDSGKTAEILTATLGLPREEARAVMTGRYGLSDKEADSVLRYSHPAKPKPFVLVLSSDMLGKAPWWTYFGTWDFKKKTGSRYGYYPSLASSKPQVVNNTTVIQTVNTMVDQNNVLGTIIEKKANTTNATIAVGNNMTVQKINPHRLTIIEGDLLVKNEVVDSDAQLSLIVIGSGNQYTTIIMNRELEDSVFTKLFLLGGFNQTSFKFLHQEPGVLLWTAA,failed
10,MDISLLKQVVQSTNKIALSTAVNNEADVKIVNFVWYEAQPDTLYFSSVKTSPALKVYDQNPDIAFITIPNDGTAGNPYLRAQHVKLQRSTKTMTDLLPQYLETVPNYQQVWDAIGSTLVVFELKLTDLFVDAGVGGEKQTLTFN,not failed
11,MDITSLINANVICLDLTSTSKEDILQEMVQILDDAGKLSNKTQFLSDVWAREEIGNTGFEDGIAIPHAKSSAVLTPSVAIGISRTGIDYGAEDGEPSDIFFMLASTDGDDNQHIEALAQISSRLIEDGFTNKLKKADSKEEILDLFTDIIQPNTESTDIENAPSQIEKSELTRKLGRTKEHLLFGTSHMIPFIVAGGVLLSLSVMISGQGAVPTEGILADIAQMGIAGLTLFTAVLGGYIAYSIADKPGLAPGMIGSWIAVQQYNTGFLGAIIIGFFAGFVVRSLKKIKLPESMASLGSIFIYPLVGTFLTCAAVMWVIGAPISNAMAALNEWLASMAGSGKIALGAILGAMAAFDMGGPINKVATLFAQTQVNTQPWLMGGVGIAICTPPLGMALATFLSPKKFKRDEREAGKAAGIMGMIGITEGAIPFAAADPARVIPAIVAGGIVGNITGFVFNVLNHAPWGGWIVLPVVDGKIGYIIGTLLGAFTTAAIVILLKKNAVEDDEHTQQKFTFESVKNEGEADVLAVTACPSGVAHTFLAAKSLEKAAHKLGIKIKVETQGADGINNRITPLDIKNAKLVIFAHDVAIKEPLRFKGMRTLDIATKDAMYSAEQLLNDNLTKHHKRFSKA,failed
12,MDKKEYSETFYHPYKPYDIQVQLMETVYRVLSEGKKIAILESPTGTGKTLSLICATMTWLRMNKADIFTRMETNIKTNEDDSENLSDDEPDWVIDTYRKSVLQEKVDLLNDYEKHLNEINTTSCKQLKTMCDLDKEHGRYKSVDPLRKKRKGARHLDVSLEEQDFIPRPYESDSENNDTSKSTRGGRISDKDYKLSELNSQIITLLDKIDGKVSRDPNNGDRFDVTNQNPVKIYYASRTYSQLGQFTSQLRLPSFPSSFRDKVPDEKVKYLPLASKKQLCINPKVMKWKTLEAINDACADLRHSKEGCIFYQNTNEWRHCPDTLALRDMIFSEIQDIEDLVPLGKSLGICPYYASREALPIAEVVTLPYQYLLSESTRSSLQINLENSIVIIDEAHNLIETINSIYSSQISLEDLKNCHKGIVTYFNKFKSRLNPGNRVNLLKLNSLLMTLIQFIVKNFKKIGQEIDPNDMFTGSNIDTLNIHKLLRYIKVSKIAYKIDTYNQALKEEESSKNENPIKETHKKSVSSQPLLFKVSQFLYCLTNLTSEGQFFFEKNYSIKYMLLEPSKPFESILNQAKCVVLAGGTMEPMSEFLSNLLPEVPSEDITTLSCNHVIPKENLQTYITNQPELEFTFEKRMSPSLVNNHLFQFFVDLSKAVPKKGGIVAFFPSYQYLAHVIQCWKQNDRFATLNNVRKIFYEAKDGDDILSGYSDSVAEGRGSLLLAIVGGKLSEGINFQDDLCRAVVMVGLPFPNIFSGELIVKRKHLAAKIMKSGGTEEEASRATKEFMENICMKAVNQSVGRAIRHANDYANIYLLDVRYNRPNFRKKLSRWVQDSINSEHTTHQVISSTRKFFSMRSLNSR,failed
13,MDKKPLNTLISATGLWMSRTGTIHKIKHHEVSRSKIYIEMACGDHLVVNNSRSSRTARALRHHKYRKTCKRCRVSDEDLNKFLTKANEDQTSVKVKVVSAPTRTKKAMPKSVARAPKPLENTEAAQAQPSGSKFSPAIPVSTQESVSVPASVSTSISSISTGATASALVKGNTNPITSMSAPVQASAPALTKSQTDRLEVLLNPKDEISLNSGKPFRELESELLSRRKKDLQQIYAEERENYLGKLEREITRFFVDRGFLEIKSPILIPLEYIERMGIDNDTELSKQIFRVDKNFCLRPMLAPNLYNYLRKLDRALPDPIKIFEIGPCYRKESDGKEHLEEFTMLNFCQMGSGCTRENLESIITDFLNHLGIDFKIVGDSCMVYGDTLDVMHGDLELSSAVVGPIPLDREWGIDKPWIGAGFGLERLLKVKHDFKNIKRAARSESYYNGISTNL,not failed
